In paper PMC7506991, “Timeless couples G‐quadruplex detection with processing by DDX11 helicase during DNA replication”:
Positions count from the first letter of the chain named.

Columns and labels:
Timeless DBD = Timeless DBD (Homo sapiens, UniProt Q9UNS1 816-954); test: fluorescence anisotropy; 150 mM KCl; FA at 25 C, 10 nM DNA: DBD in 25 mM HEPES-NaOH pH 7.2, 150 mM KCl, 0.5 mM EDTA, 0.005% Tween-20; Timeless-Tipin in 25 mM HEPES pH 7.1, 150 mM KCl, 1 mM DTT, 5 mM MgCl2; EMSA in 25 mM HEPES pH 7.1, 150 mM KCl, 5 mM MgCl2, 1 mM DTT on ice, 1% agarose at 4 C; details: protein: recombinant, tags: His14-SUMO removed
Timeless DBD, sequence (Q9UNS1 816-954): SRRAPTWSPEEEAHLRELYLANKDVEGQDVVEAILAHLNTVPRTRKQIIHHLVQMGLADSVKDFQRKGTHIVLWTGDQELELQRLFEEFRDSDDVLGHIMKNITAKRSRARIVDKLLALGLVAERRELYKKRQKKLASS

[1] = target: T1, Timeless (optimised construct);Tipin (Homo sapiens;Homo sapiens, UniProt Q9UNS1;Q9BVW5 1-238+=GSTGST+331-1208;1-301, internal_change|); test: fluorescence anisotropy; 150 mM KCl, 5 mM MgCl2; FA at 25 C, 10 nM DNA: DBD in 25 mM HEPES-NaOH pH 7.2, 150 mM KCl, 0.5 mM EDTA, 0.005% Tween-20; Timeless-Tipin in 25 mM HEPES pH 7.1, 150 mM KCl, 1 mM DTT, 5 mM MgCl2; EMSA in 25 mM HEPES pH 7.1, 150 mM KCl, 5 mM MgCl2, 1 mM DTT on ice, 1% agarose at 4 C; details: protein: recombinant;recombinant, tags: His14-SUMO removed;His6-GST removed, copies: 1;1, label: 5' 6FAM
T1 sequence (Q9UNS1 other isoform, or with tags, fused parts or gaps |, chain 1 of 2): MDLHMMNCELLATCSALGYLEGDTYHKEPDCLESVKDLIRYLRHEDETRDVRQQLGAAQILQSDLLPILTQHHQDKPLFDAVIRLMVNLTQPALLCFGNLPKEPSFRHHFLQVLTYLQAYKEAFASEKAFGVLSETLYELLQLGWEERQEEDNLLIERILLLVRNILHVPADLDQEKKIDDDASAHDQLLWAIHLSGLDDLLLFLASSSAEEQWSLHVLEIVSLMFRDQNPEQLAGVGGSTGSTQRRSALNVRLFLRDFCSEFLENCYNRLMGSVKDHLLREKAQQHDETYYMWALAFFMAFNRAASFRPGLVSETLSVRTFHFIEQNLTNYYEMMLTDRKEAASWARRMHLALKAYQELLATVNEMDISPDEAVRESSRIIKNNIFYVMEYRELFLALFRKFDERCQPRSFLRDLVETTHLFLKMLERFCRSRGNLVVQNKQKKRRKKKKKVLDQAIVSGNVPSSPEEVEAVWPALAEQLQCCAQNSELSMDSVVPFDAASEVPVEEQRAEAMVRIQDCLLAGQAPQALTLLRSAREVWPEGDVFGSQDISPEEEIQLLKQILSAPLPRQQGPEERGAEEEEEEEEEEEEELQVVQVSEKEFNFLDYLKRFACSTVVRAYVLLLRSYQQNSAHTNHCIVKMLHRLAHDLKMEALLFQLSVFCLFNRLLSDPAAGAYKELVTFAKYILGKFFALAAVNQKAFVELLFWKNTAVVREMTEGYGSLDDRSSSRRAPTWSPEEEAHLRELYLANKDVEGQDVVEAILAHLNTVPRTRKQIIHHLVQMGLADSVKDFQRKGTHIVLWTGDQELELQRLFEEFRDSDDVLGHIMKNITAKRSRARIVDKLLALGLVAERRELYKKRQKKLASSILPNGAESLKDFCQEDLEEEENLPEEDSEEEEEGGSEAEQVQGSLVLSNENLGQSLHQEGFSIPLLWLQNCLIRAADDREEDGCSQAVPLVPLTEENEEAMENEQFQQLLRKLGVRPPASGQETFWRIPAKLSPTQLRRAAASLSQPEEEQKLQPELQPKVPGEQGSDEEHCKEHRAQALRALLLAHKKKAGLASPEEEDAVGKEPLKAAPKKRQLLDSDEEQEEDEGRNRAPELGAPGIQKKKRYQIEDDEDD
T1 sequence (Q9BVW5 whole entry, change not shown, chain 2 of 2): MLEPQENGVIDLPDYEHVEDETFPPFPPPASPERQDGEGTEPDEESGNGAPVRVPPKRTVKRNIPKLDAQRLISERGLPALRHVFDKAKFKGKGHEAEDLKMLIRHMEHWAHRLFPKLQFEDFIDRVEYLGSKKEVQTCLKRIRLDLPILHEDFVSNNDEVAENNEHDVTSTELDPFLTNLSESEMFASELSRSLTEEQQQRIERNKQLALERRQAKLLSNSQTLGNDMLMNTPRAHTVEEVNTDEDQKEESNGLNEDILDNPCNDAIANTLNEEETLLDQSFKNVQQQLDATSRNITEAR

[2] = target: T1, Timeless (optimised construct);Tipin; test: EMSA; 5 uM protein, 5 uM DNA; FA at 25 C, 10 nM DNA: DBD in 25 mM HEPES-NaOH pH 7.2, 150 mM KCl, 0.5 mM EDTA, 0.005% Tween-20; Timeless-Tipin in 25 mM HEPES pH 7.1, 150 mM KCl, 1 mM DTT, 5 mM MgCl2; EMSA in 25 mM HEPES pH 7.1, 150 mM KCl, 5 mM MgCl2, 1 mM DTT on ice, 1% agarose at 4 C; details: protein: recombinant;recombinant, tags: His14-SUMO removed;His6-GST removed, copies: 1;1, label: 5' 6FAM
[3] = G4 intramolecular with ssDNA flanks

B1: dsDNA (Fig 2D) (dsDNA)
DNA 1: TGAGAGTGAGTAGAGTGAGTAA
DNA 2: TTACTCACTCTACTCACTCTCA
Kd (Timeless DBD; blunt): ~800 nM

TGAGGGTGGGTAGGGTGGGTAA (structured_DNA) [G4 DNA (MYC, 1XAV) Cy3]
Kd (Timeless DBD; label: 3' Cy3, G4 intramolecular): ~120 nM

ATAAGAGTGGTTAGAGTGTA (ssDNA) [ss20]
binding result ([1]; single strand): no binding

B2: ds20 (dsDNA)
DNA 1: ATAAGAGTGGTTAGAGTGTA
DNA 2: TACACTCTAACCACTCTTAT
binding result ([1]; blunt): no binding

B3: BU1 +3.5 (structured_DNA)
DNA: AGCTAGCACATTTTAAGGGCTGGGTGGGTGCTGTCAAGGGCTGGGTTTTCACGTAGAA
binding result [2, 3]: binds

B4: ssG4 (structured_DNA)
DNA: ACGAGAGCTAGCACATTTTGAGGGTGGGTAGGGTGGGTAATTTTCACGTAGAACCTGT
Kd [1, 3]: 600 ± 30 nM

B5: ss (ssDNA)
DNA: B4 DNA with G23T, G26C, G27A, G32C, G35C, G36T
binding result ([2]; single strand): no binding

B6: ssHP (structured_DNA)
DNA: ACGAGAGCTAGCACATTTTGAGGCTGCGTTTCGCAGCCTCAATTTCACGTAGAACCTGT
binding result ([2]; hairpin with ssDNA flanks): no binding

TGAGAGTGAGTAGAGTGAGTAA (ssDNA) [ssDNA (Fig 2D)]
binding result (Timeless DBD; single strand): binds

TGAGGGTGGGTAGGGTGGGTAA (structured_DNA) [1XAV]
binding result ([1]; G4 intramolecular): binds
